Assay: Phase 1 clinical study of BA3011: safety (adverse events, DLT, MTD, RP2D)
Type: in vivo, human
Settings: for Alanine aminotransferase increased, % / Alopecia, % / Anemia, % / Arthralgia, % / Aspartate aminotransferase increased, % / Blood alkaline phosphatase increased, % / Blood bilirubin increased, % / Bone pain, % / Constipation, % / Decreased appetite, % / Diarrhea, % / Fatigue, % / Hypokalemia, % / Hyponatremia, % / Lymphocyte count decreased, % / Nausea, % / Neutrophil count decreased, % / Patients with at least one TEAE, % / Peripheral neuropathy, % / Stomatitis, % / Vomiting, %: sarcoma patients
Text: MTD evaluation will be based on the DLT-evaluable Population. The DLT-evaluable Population includes all patients enrolled in Phase 1 dose escalation who receive at least 1 full assigned dose of BA3011 and complete the safety follow-up through the DLT-evaluation period (defined as the time period from the first dose of BA3011 through 21 days post Dose 1) or experience any DLT during the DLT-evaluation period. Non-DLT-evaluable patients will be replaced. The safety evaluation will be based on the As-Treated Population. Adverse events (AEs) will be coded by Medical Dictionary for Regulatory Activities (MedDRA) and graded according to the NCI CTCAE v4.03, and the type, incidence, severity, and relationship to each IP will be summarized. If any associations of interest between AEs and baseline characteristics are observed, additional stratified results may be presented. All treatment-emergent AEs will be summarized by MedDRA system organ class and preferred term. Laboratory abnormalities with toxicity grades according to the NCI CTCAE will be summarized.
A DLT is defined as meeting 1 of the following criteria during the 21-day DLT evaluation period or a treatment-related toxicity of any grade requiring dose delay of 1 week or more between the first and second cycles: • Non-hematologic Toxicity • For non-hematologic toxicities, DLT will be defined as any National Cancer Institute (NCI) Common Terminology Criteria for Adverse Events (CTCAE) v4.03 (published 14 Jun. 2010) Grade 3 or greater toxicity at least possibly related to treatment, except for: • Grade 3 fatigue. • Grade 3 nausea and vomiting lasting less than 24 hours. • Grade 3 non-hematologic laboratory abnormalities that are asymptomatic and resolve to Grade 1 or baseline (if the patient entered the study with existing toxicity) within 14 days. • Grade 3 or 4 allergic or hypersensitivity reaction at first occurrence in the absence of prophylactic steroid that resolves in less than 6 hours with appropriate clinical intervention
• DLT for hematologic toxicity, using NCI CTCAE v4.03, will be defined as: • Grade 4 neutropenia lasting greater than 7 days. • Grade 3 or 4 febrile neutropenia. • Grade 4 platelet count (<25,000/mm3) at any time.
Study BA3011-001 was an ongoing, multi-center, open-label, Phase 1/2 first-in-human trial of BA3011.
In Phase 1 (NCT03425279), BA3011 was administered once (Q3W) or twice (2Q3W) every 3 weeks via intravenous (IV) infusion.

[1] = 0.3 mg/kg Q3W, 1 sarcoma patient, Phase 1
[2] = 1.2 mg/kg 2Q3W, 2 sarcoma patients, Phase 1
[3] = 1.8 mg/kg 2Q3W, 19 sarcoma patients, Phase 1
[4] = 1.8 mg/kg Q3W, 2 sarcoma patients, Phase 1
[5] = 2.4 mg/kg Q3W, 2 sarcoma patients, Phase 1
[6] = Related TEAEs, All Grades, Phase 1
[7] = Related TEAEs, Grade 3, Phase 1
[8] = Related TEAEs, Grade 4, Phase 1
[9] = Total, 26 sarcoma patients, Phase 1

B1: Mecbotamab vedotin (conjugate, chains of the INN, looked up)
VH: EVQLVQSGAEVKKPGATVKISCKVSGYSFWGATMNWIRQPPGKGLEWIGLIKPSNGGTSYNQKFKGRVTISADKSISTAYLQWSSLKASDTAMYYCAHGHYESYEAMDYWGQGTLVTVSS
VL: DIQMTQSPSSLSASVGDRVTITCKASQDVVSAVAWYQQKPGQAPRLLIYWQDTRHTGVPSRFSGSGSGTEFTLTISSLQPDDFATYYCQEHFSPPLTFGQGTKVEIK
modifications: MC-vc-PAB-MMAE conjugate
[1]
  Any TEAE, % of patients: 100.0%
  Any TEAE, no. of patients: 1
  Any related serious TEAE, no. of patients: 0
  Any serious TEAE, no. of patients: 0
  Related TEAE leading to treatment discontinuation, no. of patients: 0
  Related TEAEs with CTCAE grade 3 or 4, no. of patients: 0
  TEAE leading to treatment discontinuation, no. of patients: 0
  TEAE with CTCAE grade 3 or 4, no. of patients: 0
  TEAEs leading to death, no. of patients: 0
[2]
  Any TEAE, % of patients: 100.0%
  Any TEAE, no. of patients: 2
  Any related serious TEAE, no. of patients: 0
  Any serious TEAE, no. of patients: 0
  Related TEAE leading to treatment discontinuation, no. of patients: 0
  Related TEAEs with CTCAE grade 3 or 4, no. of patients: 0
  TEAE leading to treatment discontinuation, no. of patients: 0
  TEAE with CTCAE grade 3 or 4, % of patients: 100.0%
  TEAE with CTCAE grade 3 or 4, no. of patients: 2
  TEAEs leading to death, no. of patients: 0
[3]
  Any TEAE, % of patients: (100.0%)
  Any TEAE, no. of patients: 19
  Any related serious TEAE, % of patients: (5.3%)
  Any serious TEAE, % of patients: (36.8%)
  Any serious TEAE, no. of patients: 7
  Related TEAE leading to treatment discontinuation, % of patients: (10.5%)
  Related TEAEs with CTCAE grade 3 or 4, % of patients: (57.9%)
  Related TEAEs with CTCAE grade 3 or 4, no. of patients: 11
  TEAE leading to treatment discontinuation, % of patients: (10.5%)
  TEAE leading to treatment discontinuation, no. of patients: 2
  TEAE with CTCAE grade 3 or 4, % of patients: (68.4%)
  TEAE with CTCAE grade 3 or 4, no. of patients: 13
  TEAEs leading to death, no. of patients: 0
1.8 mg/kg 2Q3W, 19 sarcoma patients, Phase 1, hepatic encephalopathy, CTCAE grade 2
  Any related serious TEAE, no. of patients: 1
1.8 mg/kg 2Q3W, 19 sarcoma patients, Phase 1, neuropathy peripheral grade 2, fatigue grade 3
  Related TEAE leading to treatment discontinuation, no. of patients: 2
[4]
  Any TEAE, % of patients: (100.0%)
  Any TEAE, no. of patients: 2
  Any related serious TEAE, no. of patients: 0
  Any serious TEAE, % of patients: (50.0%)
  Any serious TEAE, no. of patients: 1
  Related TEAE leading to treatment discontinuation, no. of patients: 0
  Related TEAEs with CTCAE grade 3 or 4, no. of patients: 0
  TEAE leading to treatment discontinuation, no. of patients: 0
  TEAE with CTCAE grade 3 or 4, % of patients: (50.0%)
  TEAE with CTCAE grade 3 or 4, no. of patients: 1
  TEAEs leading to death, no. of patients: 0
[5]
  Any TEAE, % of patients: (100.0%)
  Any TEAE, no. of patients: 2
  Any related serious TEAE, no. of patients: 0
  Any serious TEAE, % of patients: (50.0%)
  Any serious TEAE, no. of patients: 1
  Related TEAE leading to treatment discontinuation, no. of patients: 0
  Related TEAEs with CTCAE grade 3 or 4, % of patients: (50.0%)
  Related TEAEs with CTCAE grade 3 or 4, no. of patients: 1
  TEAE leading to treatment discontinuation, no. of patients: 0
  TEAE with CTCAE grade 3 or 4, % of patients: (50.0%)
  TEAE with CTCAE grade 3 or 4, no. of patients: 1
  TEAEs leading to death, no. of patients: 0
All TEAEs, All Grades, Phase 1
  Alanine aminotransferase increased, %: (46.2) %
  Alopecia, %: (23.9) %
  Anemia, %: (15.4) %
  Arthralgia, %: (23.9) %
  Aspartate aminotransferase increased, %: (42.3) %
  Blood alkaline phosphatase increased, %: (23.9) %
  Blood bilirubin increased, %: (3.8) %
  Bone pain, %: (26.9) %
  Constipation, %: (26.9) %
  Decreased appetite, %: (23.9) %
  Diarrhea, %: (26.9) %
  Fatigue, %: (61.5) %
  Hypokalemia, %: (15.4) %
  Hyponatremia, %: (11.5) %
  Lymphocyte count decreased, %: (7.7) %
  Nausea, %: (58.3) %
  Neutrophil count decreased, %: (26.9) %
  Patients with at least one TEAE, %: (100.0) %
  Peripheral neuropathy, %: (15.4) %
  Stomatitis, %: (3.8) %
  Vomiting, %: (23.9) %
All TEAEs, Grade 3, Phase 1
  Anemia, %: (7.7) %
  Aspartate aminotransferase increased, %: (3.8) %
  Blood bilirubin increased, %: (3.8) %
  Constipation, %: (3.8) %
  Hypokalemia, %: (11.5) %
  Hyponatremia, %: (7.7) %
  Lymphocyte count decreased, %: (3.8) %
  Nausea, %: (3.8) %
  Neutrophil count decreased, %: (15.4) %
  Patients with at least one TEAE, %: (57.7) %
  Peripheral neuropathy, %: (3.8) %
  Stomatitis, %: (3.8) %
  Vomiting, %: (3.8) %
All TEAEs, Grade 4, Phase 1
  Neutrophil count decreased, %: 3.8%
  Patients with at least one TEAE, %: 7.7%
Phase 1
  on-target toxicity to normal AXL-expressing tissue: No clinically meaningful on-target toxicity was observed
  rate of constipation: low
Phase 1, highest dose tested
  dose-limiting toxicities: limited to monomethyl auristatin E (MMAE) conjugate-associated toxicity at the highest dose tested, including reversible neutropenia
Phase 1 sarcoma patients
  SAE related to treatment (grade 2 hepatic encephalopathy): 1 patient
  patients with grade 3 related TEAEs: Eleven
  patients with grade 4 neutropenia: 1 patient
  treatment-emergent adverse events (TEAEs) leading to death: no treatment-emergent adverse events (TEAEs) leading to death
  treatment-related TEAEs leading to treatment discontinuation: 2 (7.7%) patients
[6]
  Alanine aminotransferase increased, %: (38.5) %
  Alopecia, %: (23.1) %
  Anemia, %: (3.8) %
  Arthralgia, %: (3.8) %
  Aspartate aminotransferase increased, %: (42.3) %
  Blood alkaline phosphatase increased, %: (19.2) %
  Blood bilirubin increased, %: (3.8) %
  Bone pain, %: (3.8) %
  Constipation, %: (15.4) %
  Decreased appetite, %: (15.4) %
  Diarrhea, %: (19.2) %
  Fatigue, %: (42.3) %
  Hypokalemia, %: (15.4) %
  Hyponatremia, %: (3.8) %
  Lymphocyte count decreased, %: (7.7) %
  Nausea, %: (38.5) %
  Neutrophil count decreased, %: (26.9) %
  Patients with at least one TEAE, %: (84.6) %
  Peripheral neuropathy, %: (15.4) %
  Stomatitis, %: (3.8) %
  Vomiting, %: (19.2) %
[7]
  Anemia, %: (3.8) %
  Aspartate aminotransferase increased, %: (3.8) %
  Blood bilirubin increased, %: (3.8) %
  Hypokalemia, %: (11.5) %
  Hyponatremia, %: (3.8) %
  Lymphocyte count decreased, %: (3.8) %
  Nausea, %: (3.8) %
  Neutrophil count decreased, %: (15.4) %
  Patients with at least one TEAE, %: (42.3) %
  Peripheral neuropathy, %: (3.8) %
  Stomatitis, %: (3.8) %
  Vomiting, %: (3.8) %
[8]
  Neutrophil count decreased, %: 3.8%
  Patients with at least one TEAE, %: 3.8%
[9]
  Any TEAE, % of patients: (100.0)%
  Any TEAE, no. of patients: 26
  Any related serious TEAE, % of patients: (3.8%)
  Any related serious TEAE, no. of patients: 1
  Any serious TEAE, % of patients: (34.6%)
  Any serious TEAE, no. of patients: 9
  Related TEAE leading to treatment discontinuation, no. of patients: 2
  Related TEAEs with CTCAE grade 3 or 4, % of patients: (46.2%)
  Related TEAEs with CTCAE grade 3 or 4, no. of patients: 12
  TEAE leading to treatment discontinuation, % of patients: (7.7%)
  TEAE leading to treatment discontinuation, no. of patients: 2
  TEAE with CTCAE grade 3 or 4, % of patients: (65.4%)
  TEAE with CTCAE grade 3 or 4, no. of patients: 17
  TEAEs leading to death, no. of patients: 0
Seen during cycle 1 treatment
  transient grade 1-2 liver enzyme elevations: generally did not re-occur upon re-treatment
Throughout treatment
  creatinine levels: generally unchanged throughout treatment
